Values of other authors, collected in publication PMC8712716.

Experiments:
NGF-beta (Homo sapiens) = NGF-beta (Homo sapiens) (UniProt P01138)
GRP78 (Homo sapiens) = GRP78 (Homo sapiens) (UniProt P11021)
TGF-beta2 (Homo sapiens) = TGF-beta2 (Homo sapiens) (UniProt P61812)
FGF-2 (Homo sapiens) = FGF-2 (Homo sapiens) (UniProt P09038)
TNF-alpha (Homo sapiens) = TNF-alpha (Homo sapiens) (UniProt P01375)
TGF-beta1 (Homo sapiens) = TGF-beta1 (Homo sapiens) (UniProt P01137)
Sequence of TGF-beta1 (Homo sapiens) (P01137 279-390): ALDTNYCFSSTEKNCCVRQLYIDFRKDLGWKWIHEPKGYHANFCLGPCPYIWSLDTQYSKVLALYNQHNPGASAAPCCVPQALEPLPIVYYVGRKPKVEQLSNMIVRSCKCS

Sequence of alpha-2-macroglobulin (P01023 24-1474): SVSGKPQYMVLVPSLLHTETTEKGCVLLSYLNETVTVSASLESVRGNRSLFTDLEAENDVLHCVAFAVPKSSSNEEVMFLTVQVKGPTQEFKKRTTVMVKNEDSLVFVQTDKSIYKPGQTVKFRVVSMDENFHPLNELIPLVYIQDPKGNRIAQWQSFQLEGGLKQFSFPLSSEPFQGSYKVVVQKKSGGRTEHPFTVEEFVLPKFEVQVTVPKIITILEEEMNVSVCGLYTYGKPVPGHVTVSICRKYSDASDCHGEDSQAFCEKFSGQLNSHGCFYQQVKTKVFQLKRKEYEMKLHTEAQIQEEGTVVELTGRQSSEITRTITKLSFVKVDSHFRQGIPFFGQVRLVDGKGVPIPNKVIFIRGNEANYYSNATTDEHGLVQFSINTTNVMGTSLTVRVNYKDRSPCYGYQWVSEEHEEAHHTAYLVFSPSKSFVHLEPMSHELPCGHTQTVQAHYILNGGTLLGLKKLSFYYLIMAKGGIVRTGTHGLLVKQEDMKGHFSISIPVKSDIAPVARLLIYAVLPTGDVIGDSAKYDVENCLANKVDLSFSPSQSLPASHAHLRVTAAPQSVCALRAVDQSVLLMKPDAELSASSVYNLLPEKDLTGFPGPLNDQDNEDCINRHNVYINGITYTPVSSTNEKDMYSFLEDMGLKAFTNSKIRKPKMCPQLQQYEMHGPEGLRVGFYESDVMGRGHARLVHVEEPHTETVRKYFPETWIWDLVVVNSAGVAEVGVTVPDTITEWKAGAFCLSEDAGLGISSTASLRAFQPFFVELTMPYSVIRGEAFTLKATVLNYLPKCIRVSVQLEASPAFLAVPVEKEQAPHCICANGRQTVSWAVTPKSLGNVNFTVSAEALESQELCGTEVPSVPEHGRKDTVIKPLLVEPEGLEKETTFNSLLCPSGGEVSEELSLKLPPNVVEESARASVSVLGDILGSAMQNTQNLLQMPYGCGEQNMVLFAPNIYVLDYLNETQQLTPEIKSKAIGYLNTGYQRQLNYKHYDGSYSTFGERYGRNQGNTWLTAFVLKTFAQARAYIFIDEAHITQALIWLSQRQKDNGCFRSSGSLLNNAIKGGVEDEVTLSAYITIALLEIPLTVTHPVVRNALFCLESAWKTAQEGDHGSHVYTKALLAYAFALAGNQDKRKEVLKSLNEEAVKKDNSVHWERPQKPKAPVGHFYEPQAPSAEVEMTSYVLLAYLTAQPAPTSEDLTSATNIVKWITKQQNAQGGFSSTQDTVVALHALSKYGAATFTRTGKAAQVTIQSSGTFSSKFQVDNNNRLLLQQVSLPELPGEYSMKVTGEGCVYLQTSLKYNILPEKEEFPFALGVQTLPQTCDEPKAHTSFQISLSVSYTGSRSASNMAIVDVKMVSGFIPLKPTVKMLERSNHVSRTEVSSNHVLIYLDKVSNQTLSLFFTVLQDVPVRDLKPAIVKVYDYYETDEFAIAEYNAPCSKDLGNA
Sequence of TGF-beta2 (Homo sapiens) (P61812 303-414): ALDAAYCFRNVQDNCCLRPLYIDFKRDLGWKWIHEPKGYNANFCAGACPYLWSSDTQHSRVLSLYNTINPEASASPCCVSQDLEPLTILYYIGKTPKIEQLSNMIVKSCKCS
Sequence of TNF-alpha (Homo sapiens) (P01375 77-233): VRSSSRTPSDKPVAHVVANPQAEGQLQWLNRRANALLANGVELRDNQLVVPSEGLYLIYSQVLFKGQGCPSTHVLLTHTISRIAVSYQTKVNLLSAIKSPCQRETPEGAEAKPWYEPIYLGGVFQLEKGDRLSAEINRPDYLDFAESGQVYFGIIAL
Sequence of GRP78 (Homo sapiens) (P11021 19-654): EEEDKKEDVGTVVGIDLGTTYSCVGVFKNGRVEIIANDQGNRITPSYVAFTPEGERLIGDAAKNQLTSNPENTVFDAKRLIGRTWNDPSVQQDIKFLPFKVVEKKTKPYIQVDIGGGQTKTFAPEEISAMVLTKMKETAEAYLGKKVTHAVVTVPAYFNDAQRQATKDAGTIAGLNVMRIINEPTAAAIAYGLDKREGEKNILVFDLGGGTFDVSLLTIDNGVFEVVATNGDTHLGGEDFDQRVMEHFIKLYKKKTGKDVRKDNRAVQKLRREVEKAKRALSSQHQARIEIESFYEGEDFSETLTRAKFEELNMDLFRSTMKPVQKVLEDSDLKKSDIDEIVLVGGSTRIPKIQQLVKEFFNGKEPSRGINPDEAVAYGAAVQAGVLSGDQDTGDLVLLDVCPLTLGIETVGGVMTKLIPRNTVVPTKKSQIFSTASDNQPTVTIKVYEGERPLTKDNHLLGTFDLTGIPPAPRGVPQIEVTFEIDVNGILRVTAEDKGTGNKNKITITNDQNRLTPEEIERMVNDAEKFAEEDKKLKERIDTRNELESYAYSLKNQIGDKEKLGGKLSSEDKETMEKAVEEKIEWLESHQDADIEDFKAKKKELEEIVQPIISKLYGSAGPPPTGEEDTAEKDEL
Sequence of FGF-2 (Homo sapiens) (P09038 143-288): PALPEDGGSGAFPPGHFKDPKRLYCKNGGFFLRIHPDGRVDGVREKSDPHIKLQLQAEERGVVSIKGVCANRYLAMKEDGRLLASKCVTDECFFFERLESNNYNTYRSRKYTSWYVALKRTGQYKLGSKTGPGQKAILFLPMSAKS
Sequence of NGF-beta (Homo sapiens) (P01138 122-241): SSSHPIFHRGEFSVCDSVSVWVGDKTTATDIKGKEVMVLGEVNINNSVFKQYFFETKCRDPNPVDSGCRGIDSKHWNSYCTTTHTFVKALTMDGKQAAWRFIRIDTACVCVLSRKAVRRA

Kd (NGF-beta (Homo sapiens)): 110 nM
Kd (GRP78 (Homo sapiens)): 0.15 nM
Kd (TGF-beta2 (Homo sapiens)): 12 nM
Kd (FGF-2 (Homo sapiens)): 590 nM
Kd (TNF-alpha (Homo sapiens)): > 750 nM
Kd (TGF-beta1 (Homo sapiens)): 80 nM
Substance: alpha-2-macroglobulin (from UniProt P01023)
